Reference: patent US20190309059A1 (SHANGHAI PHARMAEXPLORER, published 2019)

Experiments:
[1] = target: his-labeled human IL-13 (immunogen A) (human) (UniProt P35225); assay: FACS blocking, biotin-IL-13 on IL-13Ra2 HEK293 cells; antibody at 6.67 nM
[2] = target: his-labeled human IL-13 (immunogen A) (human) (UniProt P35225); assay: FACS blocking, biotin-IL-13 on IL-13Ra1/IL-4Ra HEK293 cells; antibody at 0.27 nM
[3] = target: his-labeled human IL-13 (immunogen A) (human) (UniProt P35225); assay: FACS blocking, biotin-IL-13 on IL-13Ra2 HEK293 cells; antibody at 1.33 nM
[4] = target: his-labeled human IL-13 (immunogen A) (human) (UniProt P35225); assay: FACS blocking, biotin-IL-13 on IL-13Ra1/IL-4Ra HEK293 cells; antibody at 0.05 nM
[5] = target: his-labeled human IL-13 (immunogen A) (human) (UniProt P35225); assay: FACS blocking, biotin-IL-13 on IL-13Ra1/IL-4Ra HEK293 cells; antibody at 33.33 nM
[6] = target: his-labeled human IL-13 (immunogen A) (human) (UniProt P35225); assay: FACS blocking, biotin-IL-13 on IL-13Ra1/IL-4Ra HEK293 cells; antibody at 0.002 nM
[7] = target: his-labeled human IL-13 (immunogen A) (human) (UniProt P35225); assay: FACS blocking, biotin-IL-13 on IL-13Ra2 HEK293 cells; antibody at 0.27 nM
[8] = target: his-labeled human IL-13 (immunogen A) (human) (UniProt P35225); assay: FACS blocking, biotin-IL-13 on IL-13Ra1/IL-4Ra HEK293 cells; antibody at 1.33 nM
[9] = target: his-labeled human IL-13 (immunogen A) (human) (UniProt P35225); assay: FACS blocking, biotin-IL-13 on IL-13Ra1/IL-4Ra HEK293 cells; antibody at 0.01 nM
[10] = target: cynomolgus IL-13 (purchased from sino biological) (cynomolgus) (UniProt Q0PW92); assay: ELISA, cynomolgus IL-13; antibody at 0.021 nM
Sequence of cynomolgus IL-13 (purchased from sino biological) (cynomolgus) (Q0PW92 entry or part of it): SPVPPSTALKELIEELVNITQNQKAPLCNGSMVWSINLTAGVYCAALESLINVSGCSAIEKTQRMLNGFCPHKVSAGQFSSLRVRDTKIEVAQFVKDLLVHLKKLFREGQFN

[11] = target: his-labeled human IL-13 (immunogen A) (human) (UniProt P35225); assay: FACS blocking, biotin-IL-13 on IL-13Ra2 HEK293 cells; antibody at 0.01 nM
[12] = target: cynomolgus IL-13 (purchased from sino biological) (cynomolgus) (UniProt Q0PW92); assay: ELISA, cynomolgus IL-13; antibody at 0.004 nM
[13] = target: his-labeled human IL-13 (immunogen A) (human) (UniProt P35225); assay: cell-based or functional assay
[14] = target: his-labeled human IL-13 (immunogen A) (human) (UniProt P35225); assay: FACS blocking, biotin-IL-13 on IL-13Ra1/IL-4Ra HEK293 cells; antibody at 166.67 nM
[15] = target: his-labeled human IL-13 (immunogen A) (human) (UniProt P35225); assay: ELISA, biotin-immunogen A; antibody at 0.02 nM
[16] = target: his-labeled human IL-13 (immunogen A) (human) (UniProt P35225); assay: FACS blocking, biotin-IL-13 on IL-13Ra2 HEK293 cells; antibody at 33.33 nM
[17] = target: his-labeled human IL-13 (immunogen A) (human) (UniProt P35225); assay: FACS blocking, biotin-IL-13 on IL-13Ra2 HEK293 cells; antibody at 0.05 nM
[18] = target: cynomolgus IL-13 (purchased from sino biological) (cynomolgus) (UniProt Q0PW92); assay: ELISA, cynomolgus IL-13; antibody at 0.53 nM
[19] = target: his-labeled human IL-13 (immunogen A) (human) (UniProt P35225); assay: FACS blocking, biotin-IL-13 on IL-13Ra2 HEK293 cells; antibody at 166.67 nM
[20] = target: his-labeled human IL-13 (immunogen A) (human) (UniProt P35225); assay: FACS blocking, biotin-IL-13 on IL-13Ra1/IL-4Ra HEK293 cells; antibody at 6.67 nM
[21] = target: his-labeled human IL-13 (immunogen A) (human) (UniProt P35225); assay: FACS blocking, biotin-IL-13 on IL-13Ra2 HEK293 cells; antibody at 0.002 nM
[22] = target: his-labeled human IL-13 (immunogen A) (human) (UniProt P35225); assay: ELISA, biotin-immunogen A; antibody at 0.11 nM
[23] = target: cynomolgus IL-13 (purchased from sino biological) (cynomolgus) (UniProt Q0PW92); assay: ELISA, cynomolgus IL-13; antibody at 66.7 nM
[24] = target: cynomolgus IL-13 (purchased from sino biological) (cynomolgus) (UniProt Q0PW92); assay: ELISA, cynomolgus IL-13; antibody at 2.67 nM

B1: c28A2E11 (mouse-human chimeric IL-13 antibody) (antibody, V domains shown)
VH: EVQLQQSGAELVKPGASVKLSCTASGFNIKDYYMHWVKQRTEQGLEWIGRIDPEDGETKYAPKFHDKATLTADTSSNTAYLQFSSLASEDTAVYYCTRYDYYGPFAYWGQGTLVTVSA
VL: QAVVTQESVLTTSPGETVTLTCRSSTGAVTTSNYANWVQEKPDHLFTGLIGGTNNRAPGVPARFSGSLIGDKAALTITGAQTEDEAIYFCALWYINHFIFGSGTKVTVL
mean fluorescence intensity [1]: 65.7
mean fluorescence intensity [2]: 93
mean fluorescence intensity [3]: 77.7
mean fluorescence intensity [4]: 95.6
mean fluorescence intensity [5]: 61.9
mean fluorescence intensity [6]: 102
mean fluorescence intensity [7]: 92.9
mean fluorescence intensity [8]: 76.6
mean fluorescence intensity [9]: 102
OD450 nm [10]: 0.085
mean fluorescence intensity [11]: 99.1
OD450 nm [12]: 0.073
Periostin (pg/mL), MRCS cells + IL-13 5 ng/mL; antibody at 0.0002 nM [13]: 7090 pg/mL
Periostin (pg/mL), MRCS cells + IL-13 5 ng/mL; antibody at 0.001 nM [13]: 6350 pg/mL
Periostin (pg/mL), MRCS cells + IL-13 5 ng/mL; antibody at 0.004 nM [13]: 5500 pg/mL
Periostin (pg/mL), MRCS cells + IL-13 5 ng/mL; antibody at 0.021 nM [13]: 4920 pg/mL
Periostin (pg/mL), MRCS cells + IL-13 5 ng/mL; antibody at 0.11 nM [13]: 4130 pg/mL
Periostin (pg/mL), MRCS cells + IL-13 5 ng/mL; antibody at 0.53 nM [13]: 1650 pg/mL
Periostin (pg/mL), MRCS cells + IL-13 5 ng/mL; antibody at 2.67 nM [13]: 1100 pg/mL
Periostin (pg/mL), MRCS cells + IL-13 5 ng/mL; antibody at 13.3 nM [13]: 1160 pg/mL
VCAM-1 fluorescence intensity, HUVEC + IL-13 0.5 ng/mL + TNFα; antibody at 0.0002 nM [13]: 379
VCAM-1 fluorescence intensity, HUVEC + IL-13 0.5 ng/mL + TNFα; antibody at 0.001 nM [13]: 346
VCAM-1 fluorescence intensity, HUVEC + IL-13 0.5 ng/mL + TNFα; antibody at 0.004 nM [13]: 395
VCAM-1 fluorescence intensity, HUVEC + IL-13 0.5 ng/mL + TNFα; antibody at 0.021 nM [13]: 404
VCAM-1 fluorescence intensity, HUVEC + IL-13 0.5 ng/mL + TNFα; antibody at 0.11 nM [13]: 278
VCAM-1 fluorescence intensity, HUVEC + IL-13 0.5 ng/mL + TNFα; antibody at 0.53 nM [13]: 227
VCAM-1 fluorescence intensity, HUVEC + IL-13 0.5 ng/mL + TNFα; antibody at 2.67 nM [13]: 224
VCAM-1 fluorescence intensity, HUVEC + IL-13 0.5 ng/mL + TNFα; antibody at 13.3 nM [13]: 207
mean fluorescence intensity [14]: 51.2
OD450 nm [15]: 0.25
mean fluorescence intensity [16]: 64.8
mean fluorescence intensity [17]: 97.8
OD450 nm [18]: 0.54
mean fluorescence intensity [19]: 58
mean fluorescence intensity [20]: 65.2
mean fluorescence intensity [21]: 102
OD450 nm [22]: 0.83
OD450 nm [23]: 3.4
OD450 nm [24]: 1.34
